Measured values published in the supplement of paper PMC10065799, “High-throughput profiling of sequence recognition by tyrosine kinases and SH2 domains using bacterial peptide display” (eLife, 2023).

Key:
SHP2-C SH2 = assay: SH2 binding enrichment of the phosphorylated peptide, bacterial display (enrichment ratio); higher = better substrate or ligand; peptides without Tyr show the background
Grb2 SH2 = Grb2 SH2 (UniProt P62993); assay: as above
c-Src SH2 = assay: as above
EPHB1 = EPHB1 (UniProt P54762); assay: phosphorylation enrichment, bacterial display (enrichment ratio); higher = better substrate or ligand; peptides without Tyr show the background
Fes = Fes (UniProt P07332); assay: as above
Fyn = Fyn (UniProt P06241); assay: as above
Jak2 = Jak2 (UniProt O60674); assay: as above
Hck = Hck (UniProt P08631); assay: as above
AncSZ = assay: as above
MERTK = MERTK (UniProt Q12866); assay: as above
c-Abl (mouse) = assay: as above
c-Src = assay: as above
FGFR1 = FGFR1 (UniProt P11362); assay: as above
EPHB2 = EPHB2 (UniProt P29323); assay: as above
FGFR3 = FGFR3 (UniProt P22607); assay: as above
Fer (mouse) = assay: as above
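For SH2 binding enrichment of the phosphorylated peptide, bacterial display in this document: peptide library displayed on the E. coli surface as eCPX fusions, selected cells deep-sequenced, score is each peptide's frequency after selection divided by its frequency in the input.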
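For phosphorylation enrichment, bacterial display in this document: 11-residue human phosphosite peptides and single-mutation variants displayed on the E. coli surface, counted by deep sequencing, each peptide's frequency after selection divided by its frequency in the unselected input library; frequency after pTyr selection over input frequency; kinase dosed for 20-30% of maximal phosphorylation in three min.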

MERTK, sequence (Q12866 whole entry, looked up): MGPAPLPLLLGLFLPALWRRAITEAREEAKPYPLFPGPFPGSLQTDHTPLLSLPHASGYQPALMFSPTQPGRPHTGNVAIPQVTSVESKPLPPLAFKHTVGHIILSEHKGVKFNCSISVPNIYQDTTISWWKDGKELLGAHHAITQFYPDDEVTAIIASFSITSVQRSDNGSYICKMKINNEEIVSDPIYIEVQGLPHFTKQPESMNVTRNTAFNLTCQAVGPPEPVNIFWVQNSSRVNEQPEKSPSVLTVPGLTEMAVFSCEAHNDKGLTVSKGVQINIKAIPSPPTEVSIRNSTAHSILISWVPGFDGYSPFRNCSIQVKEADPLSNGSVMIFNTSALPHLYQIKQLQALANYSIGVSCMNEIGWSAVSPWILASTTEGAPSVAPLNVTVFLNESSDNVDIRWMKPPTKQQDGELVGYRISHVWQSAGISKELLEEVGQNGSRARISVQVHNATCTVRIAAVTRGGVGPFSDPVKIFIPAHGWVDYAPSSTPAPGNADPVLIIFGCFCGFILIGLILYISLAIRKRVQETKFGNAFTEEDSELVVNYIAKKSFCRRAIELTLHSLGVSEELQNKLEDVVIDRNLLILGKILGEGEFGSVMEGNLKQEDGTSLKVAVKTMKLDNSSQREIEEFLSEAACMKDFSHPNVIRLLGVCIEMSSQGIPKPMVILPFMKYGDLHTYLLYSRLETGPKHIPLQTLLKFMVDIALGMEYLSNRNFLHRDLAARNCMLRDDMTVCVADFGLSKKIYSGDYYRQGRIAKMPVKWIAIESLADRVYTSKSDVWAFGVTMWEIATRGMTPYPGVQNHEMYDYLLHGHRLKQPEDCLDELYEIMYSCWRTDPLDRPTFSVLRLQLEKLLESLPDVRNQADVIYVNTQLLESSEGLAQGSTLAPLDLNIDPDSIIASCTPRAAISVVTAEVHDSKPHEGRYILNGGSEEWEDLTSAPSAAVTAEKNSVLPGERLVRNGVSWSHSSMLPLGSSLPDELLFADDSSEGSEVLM
Fyn, sequence (P06241 whole entry, looked up): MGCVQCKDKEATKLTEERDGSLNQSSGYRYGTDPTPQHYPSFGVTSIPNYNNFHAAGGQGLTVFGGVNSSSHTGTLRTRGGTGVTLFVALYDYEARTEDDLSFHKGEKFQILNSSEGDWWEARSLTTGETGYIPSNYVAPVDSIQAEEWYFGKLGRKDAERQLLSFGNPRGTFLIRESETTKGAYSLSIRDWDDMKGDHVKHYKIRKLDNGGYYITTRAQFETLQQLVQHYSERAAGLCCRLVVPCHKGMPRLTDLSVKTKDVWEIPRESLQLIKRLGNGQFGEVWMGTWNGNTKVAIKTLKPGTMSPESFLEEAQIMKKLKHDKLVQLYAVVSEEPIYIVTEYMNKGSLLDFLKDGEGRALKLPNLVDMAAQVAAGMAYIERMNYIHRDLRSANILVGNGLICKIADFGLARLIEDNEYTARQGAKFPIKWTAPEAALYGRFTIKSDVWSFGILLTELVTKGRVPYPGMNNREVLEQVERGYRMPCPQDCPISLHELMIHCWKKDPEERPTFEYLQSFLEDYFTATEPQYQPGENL
EPHB2, sequence (P29323 whole entry, looked up): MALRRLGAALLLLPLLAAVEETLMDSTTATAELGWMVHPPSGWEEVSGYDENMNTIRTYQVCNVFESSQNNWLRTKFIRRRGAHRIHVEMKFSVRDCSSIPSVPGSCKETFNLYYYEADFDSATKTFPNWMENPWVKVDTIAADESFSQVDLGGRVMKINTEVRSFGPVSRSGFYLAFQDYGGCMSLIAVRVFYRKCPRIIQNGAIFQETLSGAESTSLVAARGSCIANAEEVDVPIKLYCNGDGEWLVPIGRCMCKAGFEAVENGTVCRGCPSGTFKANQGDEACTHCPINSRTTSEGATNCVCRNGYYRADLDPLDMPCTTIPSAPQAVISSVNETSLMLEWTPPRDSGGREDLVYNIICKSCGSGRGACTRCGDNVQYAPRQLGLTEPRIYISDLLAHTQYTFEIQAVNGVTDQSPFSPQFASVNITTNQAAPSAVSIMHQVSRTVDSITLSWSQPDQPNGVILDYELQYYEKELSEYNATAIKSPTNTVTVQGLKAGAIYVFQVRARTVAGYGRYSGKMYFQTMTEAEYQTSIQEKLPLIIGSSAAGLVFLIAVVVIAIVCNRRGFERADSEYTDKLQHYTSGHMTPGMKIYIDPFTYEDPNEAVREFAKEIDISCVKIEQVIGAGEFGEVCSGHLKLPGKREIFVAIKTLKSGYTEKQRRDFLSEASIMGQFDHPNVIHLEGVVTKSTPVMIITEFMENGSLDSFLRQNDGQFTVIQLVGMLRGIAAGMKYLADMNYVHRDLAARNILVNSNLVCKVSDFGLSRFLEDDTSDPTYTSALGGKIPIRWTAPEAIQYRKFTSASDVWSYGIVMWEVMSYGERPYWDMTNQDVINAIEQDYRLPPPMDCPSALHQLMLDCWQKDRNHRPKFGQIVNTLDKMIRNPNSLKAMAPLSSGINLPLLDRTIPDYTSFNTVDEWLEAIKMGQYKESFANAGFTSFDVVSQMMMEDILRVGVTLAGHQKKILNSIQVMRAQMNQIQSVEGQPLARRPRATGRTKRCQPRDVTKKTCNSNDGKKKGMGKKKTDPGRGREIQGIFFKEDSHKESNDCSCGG
Fes, sequence (P07332 whole entry, looked up): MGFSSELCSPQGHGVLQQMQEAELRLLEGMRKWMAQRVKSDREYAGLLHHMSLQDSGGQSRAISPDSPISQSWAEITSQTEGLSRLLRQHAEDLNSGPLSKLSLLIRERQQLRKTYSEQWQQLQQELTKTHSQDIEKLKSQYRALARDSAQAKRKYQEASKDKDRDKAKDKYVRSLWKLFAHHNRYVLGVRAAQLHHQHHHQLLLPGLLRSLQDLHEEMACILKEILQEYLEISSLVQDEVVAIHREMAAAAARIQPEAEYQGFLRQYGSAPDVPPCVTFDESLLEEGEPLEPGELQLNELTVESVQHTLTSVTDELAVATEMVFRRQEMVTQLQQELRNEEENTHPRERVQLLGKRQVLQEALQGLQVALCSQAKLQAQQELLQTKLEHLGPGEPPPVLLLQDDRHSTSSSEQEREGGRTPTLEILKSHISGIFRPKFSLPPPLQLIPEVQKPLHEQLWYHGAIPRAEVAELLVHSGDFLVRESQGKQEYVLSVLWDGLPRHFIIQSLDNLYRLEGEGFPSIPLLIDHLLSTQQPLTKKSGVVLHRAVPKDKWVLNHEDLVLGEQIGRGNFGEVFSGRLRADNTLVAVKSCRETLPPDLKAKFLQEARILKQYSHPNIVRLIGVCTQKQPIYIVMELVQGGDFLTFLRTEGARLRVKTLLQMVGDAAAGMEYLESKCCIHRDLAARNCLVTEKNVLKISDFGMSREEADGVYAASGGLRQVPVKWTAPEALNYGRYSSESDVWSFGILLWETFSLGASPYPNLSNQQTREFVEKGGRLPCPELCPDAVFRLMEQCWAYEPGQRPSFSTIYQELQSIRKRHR
Jak2, sequence (O60674 whole entry, looked up): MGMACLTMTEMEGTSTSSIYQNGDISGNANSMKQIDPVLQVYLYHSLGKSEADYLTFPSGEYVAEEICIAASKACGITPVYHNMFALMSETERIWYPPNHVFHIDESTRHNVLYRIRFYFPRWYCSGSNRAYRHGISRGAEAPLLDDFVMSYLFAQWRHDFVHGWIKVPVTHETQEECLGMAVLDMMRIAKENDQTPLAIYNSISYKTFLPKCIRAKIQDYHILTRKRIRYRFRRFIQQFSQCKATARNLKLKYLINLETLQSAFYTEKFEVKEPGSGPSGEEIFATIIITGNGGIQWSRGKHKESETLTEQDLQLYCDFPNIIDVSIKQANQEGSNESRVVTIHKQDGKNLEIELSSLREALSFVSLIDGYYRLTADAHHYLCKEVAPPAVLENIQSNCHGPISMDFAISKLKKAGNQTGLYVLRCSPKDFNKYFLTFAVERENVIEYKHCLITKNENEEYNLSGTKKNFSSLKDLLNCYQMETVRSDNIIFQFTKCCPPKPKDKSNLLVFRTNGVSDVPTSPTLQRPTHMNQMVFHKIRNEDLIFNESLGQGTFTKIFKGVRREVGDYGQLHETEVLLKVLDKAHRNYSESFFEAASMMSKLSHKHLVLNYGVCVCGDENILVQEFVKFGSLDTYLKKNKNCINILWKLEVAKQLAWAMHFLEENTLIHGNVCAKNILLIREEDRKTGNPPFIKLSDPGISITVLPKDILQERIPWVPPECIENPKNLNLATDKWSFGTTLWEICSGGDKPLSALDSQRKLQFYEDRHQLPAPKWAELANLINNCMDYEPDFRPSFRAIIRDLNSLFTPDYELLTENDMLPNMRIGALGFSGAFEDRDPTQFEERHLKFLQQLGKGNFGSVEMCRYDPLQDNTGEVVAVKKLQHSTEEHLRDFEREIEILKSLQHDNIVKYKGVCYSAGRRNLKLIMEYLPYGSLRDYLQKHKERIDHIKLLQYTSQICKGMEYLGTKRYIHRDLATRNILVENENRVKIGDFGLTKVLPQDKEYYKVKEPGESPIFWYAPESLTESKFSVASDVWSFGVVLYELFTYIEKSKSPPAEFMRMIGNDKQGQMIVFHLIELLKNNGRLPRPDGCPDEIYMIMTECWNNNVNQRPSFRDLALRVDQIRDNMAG
Grb2 SH2, sequence (P62993 whole entry, looked up): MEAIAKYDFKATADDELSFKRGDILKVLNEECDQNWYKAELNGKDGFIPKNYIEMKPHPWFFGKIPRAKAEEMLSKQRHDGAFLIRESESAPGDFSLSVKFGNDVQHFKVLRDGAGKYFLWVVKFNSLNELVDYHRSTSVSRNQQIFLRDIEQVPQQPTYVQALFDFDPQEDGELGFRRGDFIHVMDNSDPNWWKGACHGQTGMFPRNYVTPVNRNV

Sequence | SH2 binding enrichment (SHP2-C SH2) | SH2 binding enrichment (Grb2 SH2) | SH2 binding enrichment (c-Src SH2) | phosphorylation enrichment (EPHB1) | phosphorylation enrichment (Fes) | phosphorylation enrichment (Fyn) | phosphorylation enrichment (Jak2) | phosphorylation enrichment (Hck) | phosphorylation enrichment (AncSZ) | phosphorylation enrichment (MERTK) | phosphorylation enrichment (c-Abl (mouse)) | phosphorylation enrichment (c-Src) | phosphorylation enrichment (FGFR1) | phosphorylation enrichment (EPHB2) | phosphorylation enrichment (FGFR3) | phosphorylation enrichment (Fer (mouse))
CITIHYNYMCN [TP53_Y234_T230I] | 1.44 | 1.56 | 1.57 | 0.605 | 1.01 | 0.423 | 0.881 | 0.44 | 0.923 | 0.389 | 0.582 | 0.381 | 0.474 | 0.515 | 0.662 | 0.569
MAQDIYRASYY [ALK_Y1278_R1275Q] | 0.73 | 0.882 | 0.755 | 0.576 | 0.765 | 1.62 | 0.61 | 2.54 | 0.662 | 0.791 | 7.45 | 3.15 | 0.786 | 0.53 | 0.653 | 0.451
WAMPAYNRSKL [WWOX_Y293_L291P] | 0.668 | 0.909 | 0.431 | 0.289 | 0.451 | 0.328 | 0.402 | 0.263 | 0.457 | 0.257 | 0.339 | 0.298 | 0.296 | 0.357 | 0.324 | 0.281
AVLALHNSTRD [TGFB1_Y81_Y81H] | 0.588 | 0.752 | 0.517 | 0.354 | 0.647 | 0.423 | 0.519 | 0.359 | 0.546 | 0.398 | 0.494 | 0.322 | 0.346 | 0.323 | 0.387 | 0.38
SVMAEYGLYAA [VSX2_Y219_G223A] | 0.776 | 0.838 | 0.511 | 3.29 | 0.798 | 7.34 | 0.579 | 7.6 | 0.997 | 2.4 | 0.799 | 5.12 | 0.654 | 8.04 | 0.632 | 5.85
IRTDAYVPAMT [RPE65_Y89_R91P] | 0.62 | 0.817 | 0.463 | 0.33 | 0.612 | 0.302 | 0.678 | 0.495 | 0.516 | 0.367 | 0.594 | 0.401 | 0.399 | 0.336 | 0.455 | 0.425
CTTLHYNYMCN [TP53_Y234_I232L] | 2.06 | 1.21 | 4.31 | 0.808 | 1.01 | 0.492 | 0.827 | 0.547 | 0.858 | 0.558 | 0.675 | 0.508 | 0.811 | 0.618 | 0.745 | 1.41
TTEHIYGDNFF [UBA7_Y524] | 0.577 | 0.797 | 0.478 | 0.458 | 0.882 | 5.55 | 0.671 | 2.41 | 0.776 | 0.597 | 0.754 | 4.18 | 0.417 | 0.514 | 0.552 | 2.38
